Laboratory results taken from the nanobody polyreactivity screen of Harvey et al. (2022).

Test: yeast display, Sf9 membrane polyspecificity reagent, FACS + sequencing; frameworks hold sequencing errors
Method in brief: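 Galactose-induced (36–48 hours) yeast carrying a synthetic nanobody display library were exposed to 10% biotinylated, detergent-solubilized Sf9 membrane reagent at 4 °C for 1 hour. FACS followed streptavidin microbead enrichment, using low and high (top ~1%) gates for expression (anti-HA) and reagent binding (streptavidin). Colony PCR, MiSeq 2 × 250 sequencing and CDR-length filtering followed. Labels for polyreactivity reflect the gate of origin.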

QVQLVESGGGLVQAGGSLRLSCAASGSTFNVYAMGWYRQAPGKERELVASIRTSGTRTYYADSVKGRFTISRDNAKNTVYLQMNSLKPEDTAVYYCNARYYSNLRRHGGYWGQGTQVTVSS
polyreactivity (PSR sort gate): high polyreactivity

QVQLVESGGGLVQAGGSLRLSCAASGSTFNYYAMGWYRQAPGKERELVAGITWRGRTYYADSVKGRFTISRDNAKNTVYLQMNSLKPEDTAVYYCAARQGTYGYWGQGTQVTVSS
polyreactivity (PSR sort gate): high polyreactivity

QVQLVESGGGLVQAGGSLRLSCAASGSTFPDNAMGWYRQAPGKERELVATITSGASTYYADSVKGRFTISRDNAKNTVYLQMNSLKPEDTAVYYCAVDVYFYYRHYGYWGQGTQVTVSS
polyreactivity (PSR sort gate): low polyreactivity

QVQLVESGGGLVQAGGSLRLSCAASGSTFPDYSKGWYRQAPGKERLLVADITYGGSSTYYADSVKGRFTISSDNAKNTVYLQMNSLKPDDTAVYYCAADTDYYTLIRSVLAYDYWGQGTQVTVSS
polyreactivity (PSR sort gate): low polyreactivity

QVQLVESGGGLVQAGGSLRLSCAASGSTFPDYVMGWYRQAPGKERELVAAISSIGGSTYYADSVKGRFTISRDKAKNTVYLQMNSLKPEDTAVYYCAAENSYFYPFDYWGQGTQVTVSS
polyreactivity (PSR sort gate): low polyreactivity

QVQLVESGGGLVQAGGSLRLSCAASGSTFPFNAMGWYRQAPGKERELVAGIRSRGGSTYYADSVKGRFTISRDNAKNTVYLQMNSLKPEDTAVYYCAKVYKDRDDLFYYWGQGTQVTVSS
polyreactivity (PSR sort gate): low polyreactivity

QVQLVESGGGLVQAGGSLRLSCAASGSTFPFYALGWYRQAPGKERELVAVIRGSGGRTYYADSVKGRFTISRDNAKTTVYLQMNSLKPEDTAVYYCAVKLARLYDSGYNYWGQGTQVTVSS
polyreactivity (PSR sort gate): high polyreactivity

QVQLVESGGGLVQAGGSLRLSCAASGSTFPFYAMGWYRQAPGKERELVAAITSGGSTYADSVKGRFTISRDNAKNTVYLQMNSLKAEVTAVYYCAASWPRWWRFGYWGQGTQVSVSS
polyreactivity (PSR sort gate): low polyreactivity

QVQLVESGGGLVQAGGSLRLSCAASGSTFPFYAMGWYRQAPGKERELVAAITSGGSTYADSVKGRFTITRDNAKNTVYLQMNSLKPEDTSVYYCAASWPRWWRFGYWGQGTQVNVSS
polyreactivity (PSR sort gate): low polyreactivity

QVQLVESGGGLVQAGGSLRLSCAASGSTFPGNAMGWYRQAPGKESELVASISGGGDSTYYADSVKGRFTISRDNAKNTVYLQMISLKPEDTAVYYCAADYRQEPGYTGYYYWGQGTQVTVSS
polyreactivity (PSR sort gate): low polyreactivity

QVQLVESGGGLVQAGGSLRLSCAASGSTFPGYAMGWYRQAPGKERELVAAGGSTYYADSVKGRFTISRDNAKNTVYLEMNCLKPEETAVYYCAATWGSVQKGTYYYWGQGTQVTVSS
polyreactivity (PSR sort gate): low polyreactivity

QVQLVESGGGLVQAGGSLRLSCAASGSTFPGYAMGWYRQAPGKERELVAAISASGGSTYYADSVKGRFTISRDNAKNTVYLQMNSLKPEDTAVYYCAKVLSRGASADDYWGQGTQVTVSS
polyreactivity (PSR sort gate): low polyreactivity

QVQLVESGGGLVQAGGSLRLSCAASGSTFPHYAMGWYRQAPGKERELVAAISWSGSSTYYADSVKGRFTISRDNAKNTVYLQMNSLKPEDTAVYYCNILPRRAPQFTYDYWGQGTQVTVSS
polyreactivity (PSR sort gate): high polyreactivity

QVQLVESGGGLVQAGGSLRLSCAASGSTFPINAMGWYRQAPGTERELVAAIDTNTASTYYADSVKGRFTISRDNAKNTVYLQMNSLKPEDTAVYYCAAEEWFYDGNVIYDWGQGTQVTVSS
polyreactivity (PSR sort gate): high polyreactivity

QVQLVESGGGLVQAGGSLRLSCAASGSTFPIYAMGWYRQAPGKERELVAAITRSGGSTNYADSVKGRFTISRDNAKNTVYLQMNSLKPEDTAVYYCNRTRYRSFHYDYWGQGTQVTVSS
polyreactivity (PSR sort gate): high polyreactivity

QVQLVESGGGLVQAGGSLRLSCAASGSTFPKYAMGWYRQAPGKERELVASISVTTGSTYYADSVKGRFTISRDNAKNTVYLQMNSLKPEDTAVYYCAKRTYSRKFRGAYNYWGQGTQVTVSS
polyreactivity (PSR sort gate): high polyreactivity

QVQLVESGGGLVQAGGSLRLSCAASGSTFPKYAMGWYRQAPGKERELVASISVTTGSTYYADSVKGRFTISRDNAKNTVYLQMNSLNPEDTAVYYCAKRTYSRKFRGAYNYWGQGTQVTVSS
polyreactivity (PSR sort gate): high polyreactivity

QVQLVESGGGLVQAGGSLRLSCAASGSTFPLYAMGWYRQAPGKERDLVAAITSGGGNTYYADSVKGRFTISRDNAKITVYLQMNSLKPEDTAVYSCAAVGGYKSYYSYEYDYWGQGTQVTVSS
polyreactivity (PSR sort gate): low polyreactivity

QVQLVESGGGLVQAGGSLRLSCAASGSTFPLYAMGWYRQAPGKERELVAAITSGGGNTYYADSVKGRFTISRDNAKNTVYLQMNRLKPEDTAVYYCAAVGGYKSYYSYEYDYWGQGTQVTVSS
polyreactivity (PSR sort gate): low polyreactivity

QVQLVESGGGLVQAGGSLRLSCAASGSTFPLYVMGWYRQSPGKERELVAAIDWSGGSTYYADSVKGRFTISRDNAKNTVFLQMNSLKPVDTAVYYCNRKRYGYDYEYWGQGTQVTVSS
polyreactivity (PSR sort gate): low polyreactivity

QVQLVESGGGLVQAGGSLRLSCAASGSTFPPNAMGWYRQAPGKERELVAVISYTSGRTYYADSVKGRFTISRDNAKNTVYLQMNSLKPEDTAVYYCNKRVLYRQRGFNYWGQGTQVTVSS
polyreactivity (PSR sort gate): high polyreactivity

QVQLVESGGGLVQAGGSLRLSCAASGSTFPPYAMGWYRQAPGKERELVAAIDWSDGTTYYADSVKGRFTISRDNAKNTVYLQMNSLKPEDTAVSYCSASLSQSEFDYWGQGTQVTVSS
polyreactivity (PSR sort gate): low polyreactivity

QVQLVESGGGLVQAGGSLRLSCAASGSTFPQYAMGWSRQAPGKERELVAAISWSGGRTYYADSVKGRFTISRDNAKNTVYLQMNSLKPEDTAVYYCAATYPGQYGYNYWGQGTQVTVSS
polyreactivity (PSR sort gate): high polyreactivity

QVQLVESGGGLVQAGGSLRLSCAASGSTFPSNAMGGYRQAPGKARELDAAISDSGSTTYYADSVKGRFTISRDNAKNTVYLQMNSLKPEDTAVYYCNADWWQYDFVFWTFGYDDWGQGTQVTLSS
polyreactivity (PSR sort gate): low polyreactivity

QVQLVESGGGLVQAGGSLRLSCAASGSTFPSYAMGWYRQAPGKERELVAAINSGGGTNYADSVKGRFTISRDNAKNTVYFQMNSLKPEDTAVYYCAKSRDDYTNTEGGYWGQGTQVTVSS
polyreactivity (PSR sort gate): low polyreactivity

QVQLVESGGGLVQAGGSLRLSCAASGSTFPTYAMGWSRQAPGKERELVAAIDWSDGSITYYADSVKGRFTISRDNAKNTVFLQLNSLKPEDTAVYYCAKDYSQYGWRYDYWGQGTQVTVSS
polyreactivity (PSR sort gate): low polyreactivity

QVQLVESGGGLVQAGGSLRLSCAASGSTFPTYAMGWYRQAPGKERELVADITWSGGSTYYADSVKGRFTISRDNAKNTVYLQMNSLKPEDTAVYYCAAVFKAGSAYDYWGQGTQVTVSS
polyreactivity (PSR sort gate): high polyreactivity

QVQLVESGGGLVQAGGSLRLSCAASGSTFPVNTMGWYRQAPGKERELVAAITKNGANTYYADSVKGRFTLSRDNAKNTVFLQMNSLKPEDTAVYYCAARYVYGKSYSRWLVELDYWGQATQVTVSS
polyreactivity (PSR sort gate): low polyreactivity

QVQLVESGGGLVQAGGSLRLSCAASGSTFPVYAMGGYRQAPGKERELVAAISLIGGSTYYADSVKGRFTISRDTAKNTVYLQMNSLKPEDTAVYYCNTAVISSPPAIDVLEMDYWGQGTQVTVSS
polyreactivity (PSR sort gate): low polyreactivity

QVQLVESGGGLVQAGGSLRLSCAASGSTFPVYAMGWYRQAPGKERELFAAISRAGSTNYADSVKGRFTISRDNAKNTVYLQMNSLKPEDTAVYYCAARGYLWAGEWYVRRDYWGQGTQVTVSS
polyreactivity (PSR sort gate): high polyreactivity

QVQLVESGGGLVQAGGSLRLSCAASGSTFPVYAMGWYRQAPGKERELVAAISRAGSTNYADSVKGRFTISRDNAKNSVYLQMNSLKPEDTAVYYCAARGYLWAGEWYVRRDDWGQGTQVTVSS
polyreactivity (PSR sort gate): high polyreactivity

QVQLVESGGGLVQAGGSLRLSCAASGSTFPWYVMGGYRQAPGKERELVAAISLSGGRTYYADSVMGRFTISRDNAKNRVYLQMNSLKPEDTAVYYCAAEFKLVSHTYYYWGQGTQVTVSS
polyreactivity (PSR sort gate): low polyreactivity

QVQLVESGGGLVQAGGSLRLSCAASGSTFPYNAMGWYRPAPGKERELVAAITAGGARTYYADSVKGRFTISRDNAKNTVYLQMNSLKPEDTAVYYCNKVKATSYRYYYWGQGTQVTVSS
polyreactivity (PSR sort gate): high polyreactivity

QVQLVESGGGLVQAGGSLRLSCAASGSTFPYNAMGWYRQAPGKERELVAAITSSGRTNYADSVKGRFTISRDNANNTVYLQMNSLKPEDTAVYYCAAARWYAHRVDYWGQGTQVTVSS
polyreactivity (PSR sort gate): low polyreactivity

QVQLVESGGGLVQAGGSLRLSCAASGSTFPYNAMGWYRQAPGKERELVADISGDSGSTYYADSVKGRFTISRDNAKNTVYLQMNSLKPEDTAVYYCAGEGVHYAGDYGTGYDYWGQGTQVTVSS
polyreactivity (PSR sort gate): low polyreactivity

QVQLVESGGGLVQAGGSLRLSCAASGSTFPYNAMGWYRQAPGQERELVAAITRGGRTYYADSLKGRFTISRDNSKNTVYLQMISLKPEDTAVYYCAAYYSGYSKKFDYWGQGTQVTVSS
polyreactivity (PSR sort gate): high polyreactivity

QVQLVESGGGLVQAGGSLRLSCAASGSTFPYNTMGWYRQAHGKEREFVAAITGDGGTTYYADSVKGRFTISRDNAKNTVYLQMNSLKPEDTAVYYCAVPYPAEGYGGDYWGQGTQGTVSS
polyreactivity (PSR sort gate): low polyreactivity

QVQLVESGGGLVQAGGSLRLSCAASGSTFPYVMGWYRQAPGKERELVAAISQSTGGITNYADSVKGRFTISRDNAKNTVYLQMNSLKPEDTAVYYCAATSWRYQQSTRYKGRRYYSWGQGSQVTVSS
polyreactivity (PSR sort gate): high polyreactivity

QVQLVESGGGLVQAGGSLRLSCAASGSTFPYYAMGWYRLAPGKERELVAAISFRGTRTYYADSVKGRFTISRDNAKNTVYLQMNSLKPEDTAVYYCAADASTYYGTQWASYYYWGQGTQVTVSS
polyreactivity (PSR sort gate): high polyreactivity

QVQLVESGGGLVQAGGSLRLSCAASGSTFPYYAMGWYRQAPGKERELVAAISRRGTSTYYADSVKGRFTISRDNAKNTVYLQMNSLTPEDTAVYYCAAVGGAFPNRYYWGQGTQVTVSS
polyreactivity (PSR sort gate): high polyreactivity

QVQLVESGGGLVQAGGSLRLSCAASGSTFPYYAMGWYRQAPGKERELVAAITSGGSTNYADSVKGRFTISRDNAKNTVYLQMNSLKPEDTAVYYCAADFALPNALPEYDYGAFDYNYWGQGTQVTVSS
polyreactivity (PSR sort gate): low polyreactivity

QVQLVESGGGLVQAGGSLRLSCAASGSTFPYYGLGWYRQAPGKERELVAVISRRGTGTYYADSVKGRFTISRDNAKNTVYLQMNSLKPEDTAVYYCATAGYFIYWGQGTQVTVSS
polyreactivity (PSR sort gate): low polyreactivity

QVQLVESGGGLVQAGGSLRLSCAASGSTFPYYTMGWYRQAPGKERELVAAICGRGTSTYYADSVKGRFTISRDNAKNTVYLQMISLKPEDTAVYYCAARRADVQPYSPVYAYGAYDYWGQGTQVTVSS
polyreactivity (PSR sort gate): high polyreactivity
